The assay has as its target VZV glycoprotein B H527P on extracellular vesicles (varicella-zoster virus (VZV)) (UniProt P09257). The assay can be described thus: cryo-EM structure; cryo-electron tomography with subtomogram averaging (EMAN2) of gB[H527P] in the membranes of extracellular vesicles from BHK-21 cells; C3 symmetry applied; two classes by focused classification.

For the substance “VZV glycoprotein B H527P on extracellular vesicles (from UniProt P09257 72-931) (natural protein)”, the stoichiometry N worked out at 3.

One may read the stoichiometry N as the number of molecules, sites or subunits per partner or assembly.

The values above are taken from publication PMC10693595 (2023).
